Data from US20180318451A1 (published 2018).
Substitutions are numbered along the chain they refer to.

T1: ovalbumin (UniProt P01012 2-386)
T1 sequence (looked up): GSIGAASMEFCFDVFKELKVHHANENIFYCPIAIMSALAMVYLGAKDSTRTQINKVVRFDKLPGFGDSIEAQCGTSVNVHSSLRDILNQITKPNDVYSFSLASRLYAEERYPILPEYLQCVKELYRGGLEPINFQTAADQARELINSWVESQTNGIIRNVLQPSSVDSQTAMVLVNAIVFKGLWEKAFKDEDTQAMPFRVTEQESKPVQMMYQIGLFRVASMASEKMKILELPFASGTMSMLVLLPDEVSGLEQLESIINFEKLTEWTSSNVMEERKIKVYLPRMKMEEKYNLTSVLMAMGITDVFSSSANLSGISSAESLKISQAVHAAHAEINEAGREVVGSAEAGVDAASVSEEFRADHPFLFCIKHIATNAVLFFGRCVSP

B1: Anticalin candidate H5 (designed binder)
chain: QDSTSDLIPAPPLSKVPLQQNFQDNQFHGKWYVVGTAGNWPLREDKDPHKMSATIYELKEDKSYNVTNVQFSSKKCLYFIGTFVPGSQPGEFTLGPIKSAPGQTSGLVRVVSTNYNQHAMVFFKQVIQNREAFIITLYGRTKELTSELKENFIRFSKSLGLPENHIVFPVPIDQCIDG
notes: not shown: C-terminal Strep-tag II
B2: Anticalin A3A5 (designed binder)
chain: QDSTSDLIPAPPLSKVPLQQNFQDNQFHGKWYVVGLAGNVILREDKDPYKMSATIYELKEDKSYNVTNVRFYLKKCYYTIATFVPGSQPGEFTLGTIKSGPGKTSGLVRVVSTNYNQHAMVFFKEVQQNREWFIITLYGRTKELTSELKENFIRFSKSLGLPENHIVFPVPIDQCIDG
notes: Differs from A3 by Val for Met at position 40; monomeric, 21 kDa; also called variant A3A5; not shown: C-terminal Strep-tag II
B3: Anticalin A3A5.9 (designed binder)
chain: B2 chain with F71Y, K74N, K103D, E147K
notes: A3A5.8 with K for E at position 147; also called variant A3A5.9; not shown: C-terminal Strep-tag II
B4: Anticalin A3A5.8 (designed binder)
chain: B2 chain with F71Y, K74N, K103D
notes: A3A5 with Y at 71, N at 74 and D at 103; also called variant A3A5.8; not shown: C-terminal Strep-tag II
B5: Anticalin A3A5.1 (designed binder)
chain: B2 chain with K59N, F71Y, F92Y, K103D, E147K
notes: Soluble form as in SPR; also called variant A3A5.1; not shown: C-terminal Strep-tag II
B6: Anticalin A3A5.7 (designed binder)
chain: B2 chain with K74N, Q88R, N116S, E147K
notes: Soluble form as in SPR; also called variant A3A5.7; not shown: C-terminal Strep-tag II
B7: Anticalin A3 (designed binder)
chain: B2 chain with V40M
notes: Lcn2-derived lipocalin variant, monomeric, made by periplasmic secretion in E. coli from pNGAL98 with a C-terminal Strep-tag II; also called variant A3; not shown: C-terminal Strep-tag II
B8: Anticalin candidate A2 (designed binder)
chain: QDSTSDLIPAPPLSKVPLQQNFQDNQFHGKWYVVGRAGNKPLREDKDPLKMWATIYELKEDKSYNVTIVWFDFKKCWYRISTFVPGSQPGEFTLGRIKSAPGVTSGLVRVVSTNYNQHAMVFFKYVFQNREWFHITLYGRTKELTSELKENFIRFSKSLGLPENHIVFPVPIDQCIDG
notes: as for B1

What was measured:
[1] = target: T1, ovalbumin; experiment: ELISA, ovalbumin-coated wells
From the text: (§1) Enriched lipocalin variants from phage display were subjected to ELISA screening after subcloning of the central BstXI gene cassette on pNGAL98, which also encodes the N-terminal OmpA signal sequence directing the expressed protein into the bacterial periplasm and a C-terminal Strep-tag II for purification (Schmidt, T. G. & Skerra, A. [2007] Nat. Protoc. 2:1528-1535). After transformation of E. coli TG1-F- (Kim, H. J. et al. [2009] J. Am. Chem. Soc. 131:3565-3576) with the ligation mixture, randomly picked colonies were inoculated in a 96-well plate filled with 100 μL of Terrific broth (TB) media supplemented with 100 μg/mL ampicillin per well. Anticalin expression was induced at an optical density of OD₅₅₀=0.3-0.5 by addition of 20 μL TB/Amp containing 1.2 μg/mL anhydrotetracycline (aTc; ACROS Organics, 233131000) overnight at 20° C. The periplasmic extract was prepared as previously described²¹ and applied to 96-well MaxiSorp plates (Nunc, 442404) coated with rhPSMA (5 μg/mL in TBS) and blocked with BSA. Ovalbumin (10 μg/mL in TBS) served as non-related control protein in parallel. After 1 h incubation at room temperature, plates were washed three times with PBS/T and bound lipocalin variants were detected by means of their C-terminal Strep-tag II using StrepTactin conjugated to alkaline phosphatase (IBA, 2-1503-001), diluted 1:5,000 in PBS, for 1 h. Signals were developed by hydrolysis of 0.5 mg/mL p-nitrophenyl phosphate in 0.1 M NaCl, 5 mM MgCl₂, 0.1 M Tris/HCl, pH 8.8, and monitored via absorbance measurement at 405 nm with an Infinite 200 PRO microplate reader (Tecan).
Individual colonies were used for micro-scale expression in a 96-well plate and crude E. coli lysates from these cultures were screened in an ELISA for Anticalins having PSMA-binding activity. To this end, MaxiSorp plates coated with glycosylated rhPSMA were used as a target, whereas ovalbumin-coated wells were used as negative control to assess non-specific binding. Bound Anticalins were detected via the C-terminal Strep-tag II.

[2] = target: T2, rhPSMA, extracellular part of human PSMA (residues 44-750) with its native N-terminus (human, UniProt Q04609 44-750, N-glycosylated (made in Schneider S2 insect cells)); experiment: ELISA, rhPSMA coated on MaxiSorp plate
T2 construct: range 44-750; No tag; also called wild-type rhPSMA; rhGCPII
T2 sequence (Q04609 44-750 limits assumed): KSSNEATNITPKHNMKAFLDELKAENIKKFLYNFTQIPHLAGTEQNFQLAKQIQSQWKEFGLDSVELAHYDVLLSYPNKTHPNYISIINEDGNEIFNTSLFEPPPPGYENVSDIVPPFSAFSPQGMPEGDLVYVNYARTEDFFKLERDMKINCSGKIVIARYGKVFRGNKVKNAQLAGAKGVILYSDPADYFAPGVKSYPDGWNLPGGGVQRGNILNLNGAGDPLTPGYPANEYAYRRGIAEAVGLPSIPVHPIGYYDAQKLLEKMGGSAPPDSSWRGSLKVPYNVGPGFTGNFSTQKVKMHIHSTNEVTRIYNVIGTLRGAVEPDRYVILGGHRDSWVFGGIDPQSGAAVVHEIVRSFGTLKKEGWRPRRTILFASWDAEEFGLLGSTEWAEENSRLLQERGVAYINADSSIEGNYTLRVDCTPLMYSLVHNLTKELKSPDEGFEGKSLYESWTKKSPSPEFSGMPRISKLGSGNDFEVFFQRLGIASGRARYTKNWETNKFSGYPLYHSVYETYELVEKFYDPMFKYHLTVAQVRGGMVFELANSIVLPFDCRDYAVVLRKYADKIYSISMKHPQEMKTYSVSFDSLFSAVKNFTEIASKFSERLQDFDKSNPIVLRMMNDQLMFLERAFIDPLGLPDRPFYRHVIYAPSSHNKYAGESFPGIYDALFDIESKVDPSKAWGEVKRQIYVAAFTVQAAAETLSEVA
From the text: as §1, with “The periplasmic extract was prepared as previously described²¹ and applied to 96-well MaxiSorp plates (Nunc, 442404) coated with rhPSMA (5 μg/mL in TBS) and blocked with BSA. Ovalbumin (10 μg/mL in TBS) served as non-related control protein in parallel.” left out, “(Tecan). […]” for “(Tecan).”

[3] = target: T2, rhPSMA, extracellular part of human …; experiment: SPR (BIAcore 2000), rhPSMA on chip
Experimental: (§2) Surface plasmon resonance (SPR) spectroscopy was performed on a BIAcore 2000 instrument (BIAcore) following published procedures (Gebauer, M. et al. [2013] J. Mol. Biol. 425:780-802; De Crescenzo, G. et al. [2008] J. Mol. Recognit. 21:256-266). rhPSMA (1 nM in 10 mM Na-acetate pH 5.0) was immobilized on a CM5 sensor chip (BIAcore) using an amine coupling kit (GE Healthcare, BR100050), resulting in around 500 resonance units (ΔRU). The purified Anticalins were diluted in HEPES buffered saline (HBS; 10 mM HEPES/NaOH, 150 mM NaCl, pH 7.4) with 0.005% v/v Tween 20 to concentrations from 64-2 nM. The instrument was operated using the same running buffer at a flow rate of 25 μL/min. […] Regeneration of the sensor chip was achieved by up to four injections of 10 μL glycine/HCl, pH 2.0. The sensorgrams were corrected by double subtraction of the corresponding signals measured for the in-line control blank channel and an averaged baseline determined from three buffer blank injections³¹. Kinetic parameters were determined by data fitting using a 1:1 Langmuir binding model with BIAevaluation software version 4.1 (BIAcore).
To precisely determine kinetic and thermodynamic binding constants of the PSMA-specific Anticalin A3 and its variants, surface plasmon resonance (SPR) real-time analyses was performed on a BIAcore 2000 instrument. […]

[4] = target: T2, rhPSMA, extracellular part of human …; experiment: SPR (BIAcore 2000), rhPSMA amine-coupled to CM5 chip, Anticalin as analyte
Experimental: Anticalin binding was detected using StrepTactin/AP conjugate, followed by chromogenic reaction. Absorption was plotted against the Anticalin concentration and data were analyzed by curve fitting. Binding curves for the best performing clones A3 and A3A5 are shown as solid lines. (C-E) SPR sensograms measured for Anticalins A3, A3A5 and A3A5.1 on a BIAcore 2000 instrument. Approximately 500 RU of rhPSMA was immobilized on a CM5 sensor chip by amine coupling. A dilution series from 64 to 2 nM of the purified Anticalin in HBS was applied and the resulting curves were fitted according to a Langmuir 1:1 binding model. (F) Comparison of parameters from real-time SPR analysis for Anticalins investigated in C-E, together with A3A5.7, in a kₒₙ/koff plot.
as §2
To precisely determine kinetic and thermodynamic binding constants of the PSMA-specific Anticalin A3 and its variants, surface plasmon resonance (SPR) real-time analyses was performed on a BIAcore 2000 instrument. To this end, rhPSMA was chemically coupled to the carboxymethyl dextran matrix of a sensorchip using amine chemistry and a concentrations series of each Anticalin was applied.

[5] = target: T2, rhPSMA, extracellular part of human …; experiment: ELISA, rhPSMA coated on MaxiSorp plate, Anticalin dilution series
From the text: (§3) FIG. 4: Anticalin affinities towards PSMA as determined by ELISA and BIAcore measurements. Binding activities of Anticalins selected from the original naïve library (A) or resulting from subsequent affinity maturation of the A3 variant (B) were compared in an ELISA. A 96-well MaxiSorp plate was coated with rhPSMA (or ovalbumin as a negative control, not shown) and purified Anticalin variants were applied in dilution series. Anticalin binding was detected using StrepTactin/AP conjugate, followed by chromogenic reaction. Absorption was plotted against the Anticalin concentration and data were analyzed by curve fitting. Binding curves for the best performing clones A3 and A3A5 are shown as solid lines. (C-E) SPR sensograms measured for Anticalins A3, A3A5 and A3A5.1 on a BIAcore 2000 instrument. Approximately 500 RU of rhPSMA was immobilized on a CM5 sensor chip by amine coupling. […]
(§4) 50 μL of rhPSMA (5 μg/mL in TBS) was directly adsorbed onto the surface of a MaxiSorp 96-well plate overnight at 4° C. […] The plates were washed three times and bound Anticalins were detected with StrepTactin-AP as described further above. The data were analyzed using Prism 5 software (GraphPad) and absorption values (A) were fitted according to the formula ΔA=Aₘₐₓ·[Lₜₒₜ]/(KD+[Lₜₒₜ]) with the concentration of the applied lipocalin variant [Lₜₒₜ] and the dissociation constant KD.

[6] = target: T2, rhPSMA, extracellular part of human …; experiment: SPR (BIAcore), rhPSMA on chip, Anticalin as analyte
Experimental: as §2
Several combinations of mutations occurring in the PSMA-specific Lcn2 variants A3A5.1 (carrying 5 new mutations) and A3A5.7 (carrying 4 new mutations) were prepared in order to investigate the relevance of the mutations that were found during affinity maturation for improved PSMA binding with the aim to create a combined Anticalin variant suitable for further protein engineering studies. A first combination, containing solely the mutations located in the loop regions of the Anticalins, was carried out by introducing the following mutations into the sequence of A3A5 (see SEQ ID NO:2): (i) a Y at position 71 as also present in A3A5.1, (ii) an N at position 74 as also present in A3A5.7, (iii) a D at position 103 as also present in A3A5.1. This triple substitution variant, termed A3A5.8, was obtained by gene synthesis, cloned and subsequently expressed (as described in Example 1).

[7] = target: T2, rhPSMA, extracellular part of human …; experiment: SPR (BIAcore), rhPSMA on chip
Experimental: as §2, with “(BIAcore). […]” for “(BIAcore).”

[8] = target: T2, rhPSMA, extracellular part of human …; experiment: ELISA, rhPSMA coated on MaxiSorp plate, Anticalin dilution series, detection by StrepTactin/AP
From the text: as §3, §4

Binder | binding result [1] | Kd [4] | koff [4] | kon [4] | further results
B1 | no binding | – | – | – | binding result [2]: binds
B2 | – | 2.5 nM | 0.00017 s⁻¹ | 71000 M⁻¹ s⁻¹ | fold improvement of KD against A3 [3]: 2 fold; Kd [5]: 2.1 nM
B3 | – | – | – | – | Kd [6]: 0.74 nM; koff [6]: 0.00016 s⁻¹; kon [6]: 220000 M⁻¹ s⁻¹
B4 | – | – | – | – | Kd [6]: 1.4 nM; koff [6]: 0.00015 s⁻¹; kon [6]: 110000 M⁻¹ s⁻¹; fold improvement of KD against A3A5 [7]: ~2 fold
B5 | – | 0.66 nM | 0.00014 s⁻¹ | 210000 M⁻¹ s⁻¹ | –
B6 | – | 0.54 nM | 0.00014 s⁻¹ | 270000 M⁻¹ s⁻¹ | –
B7 | no binding | 4.8 nM | 0.00058 s⁻¹ | 120000 M⁻¹ s⁻¹ | Kd [5]: 5.8 nM; Kd [8]: 6 nM
B8 | no binding | – | – | – | binding result [2]: binds
